Results from publication PMC12522135, “Engineering a Coiled-Coil Protein for DARPin Presentation as a Potent SARS-CoV‑2 Therapeutic” (Biomacromolecules, 2025).

B1: HEX-D1 (designed binder)
chain: DLGKKLLQAARAGQLDEVRELLKAGADVNAKDREGITPLHLAAQHGHLEIVEVLLKAGADVNAKDVWGRTPLHLAAWQGHLEIVEVLLKAGADVNAKDLAGATPLHVAALYGHLEIVEVLLKAGADVNAQDKSGKTPADLAARAGHQDIAEVLQKAAGGGSGGGSGGGSGGGSGELKAIAQELKAIAKELKAIAWELKAIAQGAGGGGSGGGSGGGSGGGSDLGKKLLQAARAGQLDEVRELLKAGADVNAKDREGITPLHLAAQHGHLEIVEVLLKAGADVNAKDVWGRTPLHLAAWQGHLEIVEVLLKAGADVNAKDLAGATPLHVAALYGHLEIVEVLLKAGADVNAQDKSGKTPADLAARAGHQDIAEVLQKAA
B2: HEX-D2 (designed binder)
chain: DLGKKLLQAARAGQLDEVRELLKAGADVNAKDREGKTPLHVAAQEGHLEIVEVLLKAGADVNAKDVWGRTPLHLAAWIGHLEIVEVLLKAGADVNAKDVSGATPLHAAALHGHLEIVEVLLNAGADVNAQDKSGKTPADLAARAGHQDIAEVLQKAAGGGSGGGSGGGSGGGSGELKAIAQELKAIAKELKAIAWELKAIAQGAGGGGSGGGSGGGSGGGSDLGKKLLQAARAGQLDEVRELLKAGADVNAKDREGKTPLHVAAQEGHLEIVEVLLKAGADVNAKDVWGRTPLHLAAWIGHLEIVEVLLKAGADVNAKDVSGATPLHAAALHGHLEIVEVLLNAGADVNAQDKSGKTPADLAARAGHQDIAEVLQKAA
B3: HEX-D3 (designed binder)
chain: DLGKKLLQAARAGQLDEVRELLKAGADVNAKDQEGITPLHVAAHQGHLEIVEVLLKAGADVNAKDVWGRTPLHLAAWRGHLEIVEVLLKAGADVNAKDHAGATPLHAAALSGHLEIVEVLLKAGADVNAQDKSGKTPADLAARAGHQDIAEVLQKAAGGGSGGGSGGGSGGGSGELKAIAQELKAIAKELKAIAWELKAIAQGAGGGGSGGGSGGGSGGGSDLGKKLLQAARAGQLDEVRELLKAGADVNAKDQEGITPLHVAAHQGHLEIVEVLLKAGADVNAKDVWGRTPLHLAAWRGHLEIVEVLLKAGADVNAKDHAGATPLHAAALSGHLEIVEVLLKAGADVNAQDKSGKTPADLAARAGHQDIAEVLQKAA
B4: Linear D1 (designed binder)
chain: DLGKKLLQAARAGQLDEVRELLKAGADVNAKDREGITPLHLAAQHGHLEIVEVLLKAGADVNAKDVWGRTPLHLAAWQGHLEIVEVLLKAGADVNAKDLAGATPLHVAALYGHLEIVEVLLKAGADVNAQDKSGKTPADLAARAGHQDIAEVLQKAAGGGSGGGSGGGSGGGSDLGKKLLQAARAGQLDEVRELLKAGADVNAKDREGITPLHLAAQHGHLEIVEVLLKAGADVNAKDVWGRTPLHLAAWQGHLEIVEVLLKAGADVNAKDLAGATPLHVAALYGHLEIVEVLLKAGADVNAQDKSGKTPADLAARAGHQDIAEVLQKAAGGGSGGGSGGGSGGGSDLGKKLLQAARAGQLDEVRELLKAGADVNAKDREGITPLHLAAQHGHLEIVEVLLKAGADVNAKDVWGRTPLHLAAWQGHLEIVEVLLKAGADVNAKDLAGATPLHVAALYGHLEIVEVLLKAGADVNAQDKSGKTPADLAARAGHQDIAEVLQKAA
B5: Linear D2 (designed binder)
chain: DLGKKLLQAARAGQLDEVRELLKAGADVNAKDREGKTPLHVAAQEGHLEIVEVLLKAGADVNAKDVWGRTPLHLAAWIGHLEIVEVLLKAGADVNAKDVSGATPLHAAALHGHLEIVEVLLNAGADVNAQDKSGKTPADLAARAGHQDIAEVLQKAAGGGSGGGSGGGSGGGSDLGKKLLQAARAGQLDEVRELLKAGADVNAKDREGKTPLHVAAQEGHLEIVEVLLKAGADVNAKDVWGRTPLHLAAWIGHLEIVEVLLKAGADVNAKDVSGATPLHAAALHGHLEIVEVLLNAGADVNAQDKSGKTPADLAARAGHQDIAEVLQKAAGGGSGGGSGGGSGGGSDLGKKLLQAARAGQLDEVRELLKAGADVNAKDREGKTPLHVAAQEGHLEIVEVLLKAGADVNAKDVWGRTPLHLAAWIGHLEIVEVLLKAGADVNAKDVSGATPLHAAALHGHLEIVEVLLNAGADVNAQDKSGKTPADLAARAGHQDIAEVLQKAA
B6: Linear D3 (designed binder)
chain: DLGKKLLQAARAGQLDEVRELLKAGADVNAKDQEGITPLHVAAHQGHLEIVEVLLKAGADVNAKDVWGRTPLHLAAWRGHLEIVEVLLKAGADVNAKDHAGATPLHAAALSGHLEIVEVLLKAGADVNAQDKSGKTPADLAARAGHQDIAEVLQKAAGGGSGGGSGGGSGGGSDLGKKLLQAARAGQLDEVRELLKAGADVNAKDQEGITPLHVAAHQGHLEIVEVLLKAGADVNAKDVWGRTPLHLAAWRGHLEIVEVLLKAGADVNAKDHAGATPLHAAALSGHLEIVEVLLKAGADVNAQDKSGKTPADLAARAGHQDIAEVLQKAAGGGSGGGSGGGSGGGSDLGKKLLQAARAGQLDEVRELLKAGADVNAKDQEGITPLHVAAHQGHLEIVEVLLKAGADVNAKDVWGRTPLHLAAWRGHLEIVEVLLKAGADVNAKDHAGATPLHAAALSGHLEIVEVLLKAGADVNAQDKSGKTPADLAARAGHQDIAEVLQKAA

These binders were tested against SARS-CoV-2 RBD protein (SARS-CoV-2 (Wuhan-Hu-1), UniProt P0DTC2 319-541) (assay: BLI). Conditions: both partners purified.
For B1, the Kd was < 1 pM.
For B2, the Kd was < 1 pM.
B3 was tested, and the Kd was < 1 pM.
In the case of B4, the Kd is reported as < 1 pM.
With B5 the Kd was < 1 pM.
With B6 the Kd was < 1 pM.
